Assay results reported in the supplement of paper PMC9170038.

System: MS2 coat protein
Assay: apparent KD of MS2 coat protein; designed switch direction (-1 OFF switch, 1 ON switch): -1; higher = weaker reporter binding
Method in brief: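 Designed RNA switches with common flanks were transcribed on Illumina chips by stalled E. coli RNA polymerase and titrated with SNAP-549-labelled MS2 coat protein, from 0.7 or 1.5 nM doubling to 3 µM, in Tris-HCl pH 7.5 buffer with KCl, MgCl2, BSA, DTT, tRNA and Tween-20. Steps lasted 0.8–1.5 h (lowest) to 10–20 min (highest). Titrations ran without input, with 200 uM small-molecule ligand, or with an oligonucleotide input. Normalised cluster fluorescence was curve-fitted, and apparent KD is the per-design median over clusters.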

[1] = input ligand: microRNA oligo, concentration not stated
[2] = Eterna round: R95, input ligand: microRNA oligo, concentration not stated
[3] = Eterna round: R95, input ligand: FMN 200 uM
[4] = Eterna round: R95, input ligand: none

Row | Sequence | apparent KD of MS2 coat protein (input ligand: FMN 200 uM) [nM] | apparent KD of MS2 coat protein (input ligand: none) [nM] | apparent KD of MS2 coat protein [1] [nM] | apparent KD of MS2 coat protein [2] [nM] | apparent KD of MS2 coat protein [3] [nM] | apparent KD of MS2 coat protein [4] [nM]
1 | AAACACGGAGGAUAUGGUCACUAGGACAUGAGGAUCACCCAUGUGGGAGUGCUAGUGCUACCAGAAGGUUGAAGUC [Eternabot (L1) Solution 54] (Eterna round: R97, puzzle: Exclusion 5) | 66.6 | 76.1 |  |  |  | 
2 | ACGCCUAUAGUGAGGAUAUUGCGGGUAGGUAUUUGCAAGAAGGCACUUGAGGAUCACCCAAGUGAAGAAGUUGC [Geusra] (Eterna round: R97, puzzle: Brourd's mod of Exclusion 4) | 14.7 | 15.1 |  |  |  | 
3 | UAAGUUUACCGAGGAUAUGGUUUUUCCUUUUUACCAGAAGGCGGACUCAACAUGAGGAUCACCCAUGUAUAAAGGGUAUUUGGU [JR_ExcNG1_Sub045] (Eterna round: R96, puzzle: Exclusion NG 1) | 57.8 | 54 | 49.6 |  |  | 
4 | UAUUAGUGAGGAUAUGAGUCGUAGAACAAUAGUACUACGUCUCAGAAGGUACAUGAGGAUCACCCAUGUUCCUU [Fiskers Ex 4 Super Stable 44 mod 34] (puzzle: Exclusion 4) |  |  |  | 12 |  | 
5 | AUAUUAAUAGUAAGGAUAUGCGUAUAUAUAAUUAUGCAGAAGGUACAUGAGGAUCACCCAUGUAUUAAUGUGUA [LRO-BmodExc4-02-Oppy's Opus] (Eterna round: R97, puzzle: Brourd's mod of Exclusion 4) | 13.5 | 13 |  |  |  | 
6 | AAAGAACUAGGAUAUCGCGCUACAGACAUGAGGAUCACCCAUGUAAUCGCAUGUCAAGUUUGAGAAGGAGUGAAGA [Usissodi] (puzzle: Exclusion 5) |  |  |  | 11.9 | 21.5 | 9.9
7 | AGAUAGUGGUGAGGAUAUCAGAAUAGAAAGAAAUGAGAAGGCACACAUGAGGAUCACCCAUGUGAGGUCUUGAGACUACAUGGU [Prohibition 40 - Jieux - Exclusion NG 1] (Eterna round: R96, puzzle: Exclusion NG 1) | 21.2 | 17.3 | 12.5 |  |  | 
8 | GACUAGAGAGGAUAUAUUUACAGUGUACCUCGGAUGAUCGCACUUGAGGAUCACCCAAGUAGAAGGCUCGAGGG [EX2 #29] (Eterna round: R97, puzzle: Exclusion 2) | 11 | 15.2 |  |  |  | 
9 | UAUAUAUAGUAAGGAUAUGUAAUUAUUUUAUGAACAGAAGGUACUGACAUGAGGAUCACCCAUGUUUUAGUGUGGGCAUGUAGA [JMF's solution 48] (Eterna round: R96, puzzle: Exclusion NG 1) |  |  | 61.3 |  |  | 
10 | UAUUAAUUAAUUAAUUAAUACAUGAGGAUCACCCAUGUAAUUUAAGAUCCUUAUACAAGCUUUGAUCUCGUAAUUAA [Stov1/4-A2] (Eterna round: R97, puzzle: Sensor, turn-off variant 1) | 861 | 696 |  |  |  | 
11 | GCACGGAAUGUAGGAUAUUAGUGCGAUUAGCACUGAGAAGGACAUGAGGAUCACCCAUGUAACUCAAUAAUAAACCUUCCGUGC [Eli exng1 - 045] (Eterna round: R96, puzzle: Exclusion NG 1) | 11.2 | 12.2 | 8.85 |  |  | 
12 | GAGUGCUGAGGAUAUACAUGAGGAUCACCCAUGUGCUUCAGCUAGGAGACUAGCAUUCGUAGAAGGCAGUACUC [Mod of lroppy 22 - Jieux - Exclusion 3] (Eterna round: R97, puzzle: Exclusion 3) | 42.6 | 14.7 |  |  |  | 
13 | GGUCGUAUGAGUAGUCCUCAUUGAAGAGAUUGGUAAGAUACAUGAGGAUCACCCAUGUUUGAACAAGCUUUUGCUCU [JR_Sv3TOV2_Sub008] (Eterna round: R96, puzzle: Sensor v3, turn-off variant 2) | 159 | 118 | 54.3 |  |  | 
14 | AGUGUGAGGCAGGAUAUGCAAUUUGUAAGUAAUGCAGAAGGGUCUACAUGAGGAUCACCCAUGUGUGCGGUUGA [Ex6 #11] (Eterna round: R97, puzzle: Exclusion 6) | 447 | 246 |  |  |  | 
15 | AGUAAUUCAAGAGGAUAUCACAUGAGGAUCACCCAUGUAUAGCGCGCUACGCUAGUCCUCGUAUUUGAGAAGGUUUGAUAAAUG [JL ViennaUCT Quve mod 1] (Eterna round: R96, puzzle: Exclusion NG 2) | 14.4 | 17.1 | 12.5 |  |  | 
16 | UACUGACAUGAGGAUCACCCAUGUGAGGAUAUUCUCCUGCCAAAUUAAUGGUGGGUGUGAAGAAGGCACAAGGA [EX1 C.12] (Eterna round: R97, puzzle: Exclusion 1) | 98 | 29.1 |  |  |  | 
17 | GCUAGUCAUGUCAGGAUAUGCUGUUCCUUGGAACAGCAGAAGGGACAUGAGGAUCACCCAUGUGCCUAACUAGC [Mat - Exclusion 4 - JL Mod - D12] (Eterna round: R97, puzzle: Brourd's mod of Exclusion 4) | 558 | 43.8 |  |  |  | 

Row | Sequence | apparent KD of MS2 coat protein (input ligand: FMN 200 uM) [nM] | apparent KD of MS2 coat protein (input ligand: none) [nM] | apparent KD of MS2 coat protein [1] [nM] | apparent KD of MS2 coat protein [2] [nM] | apparent KD of MS2 coat protein [3] [nM] | apparent KD of MS2 coat protein [4] [nM]
18 | AGCUGUGGCCGAGGAUAUCCACAUGAGGAUCACCCAUGUCGAUACCAGCGUAAGCUGGAUAUAAGGGAGAAGGCGGUCUCAGCA [Eli eng2 - 053] (Eterna round: R96, puzzle: Exclusion NG 2) | 6.2 | 10.5 | 6.51 |  |  | 
19 | CGGAUGUUAGGAUAUUAGUAGUAGUCAGAAUAGACUAUUACUGAGAAGGAACAUGAGGAUCACCCAUGUAUCCG [Eli x4 4.20] (Eterna round: R97, puzzle: Exclusion 4) | 47.4 | 17.7 |  |  |  | 
20 | UGAUCACAUGAGGAUCACCCAUGUCAGGAUAUCUACAUUGAAGCCUCGGCUUCAAUGUAGAGAAGGGACAUAAU [E1/3-B2] (Eterna round: R97, puzzle: Exclusion 1) | 33.2 | 71.1 |  |  |  | 
21 | AGUUAUUCAGGAUAUGGUGUGUUAUACAUGAGGAUCACCCAUGUGGGUCAUGGUUAGGCCUCAGAAGGGAAUGUUA [salish99_ex5_r4_125] (Eterna round: R97, puzzle: Exclusion 5) | 796 | 1100 |  |  |  | 
22 | UAUAAUACAUAGGAUAUCGAAUAAAUCAUUUAACGAGAAGGAUGAACAUGAGGAUCACCCAUGUGGUAUCAUGG [Mat - Exclusion 6 - JL Mod - D12] (puzzle: Exclusion 6) |  |  |  | 180 |  | 
23 | UCGCUCCGUGUAGGAUAUCGUUGUACUCUGCGGCGAGAAGGACAUGAGGAUCACCCAUGUAUGUUAUUAUCACGCGUGGCGCAA [Design 68] (Eterna round: R96, puzzle: Exclusion NG 1) | 21.5 | 19 | 17 |  |  | 
24 | CUAAAUCAUGUAGGAUAUGCGUGGCAAAGCUAUGCAGAAGGACAUGAGGAUCACCCAUGUCAUUCCGUCUGAGAACAGACGGGA [Mat - Exclusion NG 1 - Mod of JL - D51] (Eterna round: R96, puzzle: Exclusion NG 1) | 172 | 22.1 | 17.1 |  |  | 
25 | AAUUCACAUGAGGAUCACCCAUGUGAGGAUAUGGUUUCGCUGGCCGUAGCCAGUGGAACCAGAAGGCGCAUGAU [Mat - Exclusion 1 - JL Mod - D11] (Eterna round: R97, puzzle: Exclusion 1) | 30.7 | 28.9 |  |  |  | 
26 | AGUAGUUCAGGAUAUGAUGUUGAGUACAUGAGGAUCACCCAUGUAGGUCCUGGAUUUGCAUCAGAAGGGAAUAACU [JR_Ex5_Sub084] (Eterna round: R97, puzzle: Exclusion 5) | 59 | 26.7 |  |  |  | 
27 | GCAGUUCGAGUUAGGAUAUGAUGUUAAUUCGGAUAUCAGAAGGAACUUGAGGAUCACCCAAGUAUAGAUGUUGC [JR_BMEx4_Sub060] (Eterna round: R97, puzzle: Brourd's mod of Exclusion 4) | 29.6 | 18.6 |  |  |  | 
28 | CAUGUGCGAAAGGAUAUGGCCCGCGGAUCAGCUCCAGAAGGUUCGACAUGAGGAUCACCCAUGUGAUCUGGUAA [Eternabot (L1) Solution 61] (Eterna round: R97, puzzle: Exclusion 6) | 139 | 369 |  |  |  | 
29 | CCGAAAAGGAAGGAUAUGCUUGACGAAAGUCAAGCAGAAGGUCCUACAUGAGGAUCACCCAUGUGGUCCUUCGG [Mat - Exclusion 6 - Eli Mod - D36] (Eterna round: R97, puzzle: Exclusion 6) | 629 | 450 |  |  |  | 
30 | CCGGCUGCUGUGAGGAUAUGCCUGUGGGUGCGUGGGUAGAAGGCACAUGAGGAUCACCCAUGUCCUGCGGUCCC [salish99_bmx4_r4_113] (Eterna round: R97, puzzle: Brourd's mod of Exclusion 4) | 63.9 | 66 |  |  |  | 
31 | UACUUGUUAGGAUAUCUUACAUUUGCAUCAUAGUAACCUUUGGAGAAGGGACAUGAGGAUCACCCAUGUUUGGU [tap-tap-tappy6] (Eterna round: R97, puzzle: Exclusion 4) | 49.2 | 72.6 |  |  |  | 
32 | GAUUAUGCGAGCUUUAGGGACAUGAGGAUCACCCAUGUUCGUCUUGUUGAUCUAGGUACGCUAACAUACCUAAAUCU [JMF 6] (puzzle: Sensor v3, turn-off variant 1) |  |  |  | 28.3 | 19.7 | 20.2
33 | AUGCGCAAGCUUUUUGUUCACAUGAGGAUCACCCAUGUUAUGGUCGCCUGUGAGGAGCGAUAGCGUCUCCGACCUGA [Eternabot (Original) Solution 31] (Eterna round: R97, puzzle: Sensor, turn-off variant 1) | 35.7 | 36.5 |  |  |  | 
